These results are taken from the supplement of paper PMC9170038.

For the data set, the system named is MS2 coat protein. Nature of the data set: apparent KD of MS2 coat protein; designed switch direction (-1 OFF switch, 1 ON switch): -1; higher = weaker reporter binding. In short, it runs like this: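 Designed RNA switches were transcribed on Illumina chips by stalled E. coli RNA polymerase and titrated with SNAP-549-labelled MS2 coat protein from 0.7 or 1.5 nM, doubling to 3 µM. Step length ran from 0.8–1.5 h at the lowest concentration to 10–20 min at the highest. The apparent KD is the median over clusters for each design, from curve-fitted normalised cluster fluorescence.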

[1] abbreviates: Eterna round: R95, input ligand: microRNA oligo, concentration not stated.
[2] abbreviates: Eterna round: R95, input ligand: FMN 200 uM.
The mark [3] stands for this setting: Eterna round: R95, input ligand: none.
[4] abbreviates: input ligand: microRNA oligo, concentration not stated.

Turning to “CAAUUCAGAGGAUAUGCGCAUAGAUAAGACUUUUUUUCUUAACAUGAGGAUCACCCAUGUAGAAGGCUGUAACC [Ex2 #63] (Eterna round: R97, puzzle: Exclusion 2)”, the “apparent KD of MS2 coat protein” value is, setting by setting: (input ligand: FMN 200 uM) 0.0198 µM; (input ligand: none) 0.0182 µM.
For “AAUAACAGAGGAUAUACUGUUUUAUGUGUUUGUUAUUUUAAACAUGAGGAUCACCCAUGUAGAAGGCUGAGUAA [JMF 30] (puzzle: Exclusion 2)”, under setting [1], the “apparent KD of MS2 coat protein” value came to 0.025 µM.
With “UCAUGUCCUGAGGAUAUGUAGCGGAUAAACGCAACAGAAGGCAGGACAUGAGGAUCACCCAUGUGCGCCUUUCA [Exclusion 6 Mod2 of JL of Mod of Letion by ViennaUCT] (Eterna round: R97, puzzle: Exclusion 6)”, the “apparent KD of MS2 coat protein” value was determined as 0.0267 µM (input ligand: FMN 200 uM) and 0.0845 µM (input ligand: none).
For “AGUAACCGUCACGAAAGUGAUGGUUACACAAGUAAUGAAACAUGAGGAUCACCCAUGUCCUCAUUUGCUCGUCUUAU [Sensor 3 - 39] (puzzle: Sensor v3, turn-off variant 2)”, the “apparent KD of MS2 coat protein” value under setting [2] was 0.354 µM, the “apparent KD of MS2 coat protein” value under setting [1] turned out to be 0.362 µM and the “apparent KD of MS2 coat protein” value under setting [3] worked out at 0.35 µM.
In the case of “UAAAACAGAGGAUAUCGCUUGGUAAACAUGAGGAUCACCCAUGUGGUCUCGGUGGAUACCCGAGAAGGCUGAGCGU [Xeraisbece] (Eterna round: R97, puzzle: Exclusion 5)”, the “apparent KD of MS2 coat protein” value was 0.0195 µM (input ligand: FMN 200 uM) and 0.019 µM (input ligand: none).
For “ACAUGAGGAUCACCCAUGUAAACAUAAUGGCUCAUGUAGAGUCAGGAUAUGCGUGGCUAACAAUCGCAGAAGGGACAAGACUGG [Deportation 29 - Jieux - Exclusion NG 3] (Eterna round: R96, puzzle: Exclusion NG 3)”, the “apparent KD of MS2 coat protein” value by setting is: (input ligand: FMN 200 uM) 0.0221 µM; under setting [4], 0.0202 µM; (input ligand: none) 0.0245 µM.
For the sequence “GGAGCGAUUCUCUUAGCAGACAUGAGGAUCACCCAUGUAUGCAAGCUCUUAUUUUGCUCGUCUUACCGGGAGUUGCU [Ridizaer] (puzzle: Sensor v3, turn-off variant 1)”, the “apparent KD of MS2 coat protein” value under setting [2] stood at 0.0136 µM, the “apparent KD of MS2 coat protein” value under setting [1] turned out to be 0.0207 µM and the “apparent KD of MS2 coat protein” value under setting [3] turned out to be 0.013 µM.
In the same order, the values of “UAAAACUGAGGAUAUACAUGAGGAUCACCCAUGUCAAUUGACAGCGGCGUGGCAAAAGGUAGAAGGCAGGCGGU [Lerete] (puzzle: Exclusion 3)” are 0.043 µM, 0.176 µM and 0.161 µM.
In the case of “CGGUGCUGAGGAUAUACAUGAGGAUCACCCAUGUGUUCUUGCUAGCGUACUGGCAGAUGUAGAAGGCGGUACUG [JL-ex3-3.45 Brourd mod] (puzzle: Exclusion 3)”, the “apparent KD of MS2 coat protein” value is, setting by setting: under setting [2], 0.0997 µM; under setting [1], 0.0197 µM; under setting [3], 0.0227 µM.
As to “AGAGAGUCAGGAUAUCGGAGGGCGAGGAGAGGAGAGAGAGACGAGAAGGGACAUGAGGAUCACCCAUGUAGGUG [JR_Exclusion4)Sub018] (puzzle: Exclusion 4)”, the “apparent KD of MS2 coat protein” value is, setting by setting: under setting [2], 0.197 µM; under setting [1], 0.268 µM; under setting [3], 0.4 µM.
Turning to “ACAUGUCAUCGAGGAUAUUGGACACAUGAGGAUCACCCAUGUACCCGGAGGCUUUACUAUGAGUUCGAGAAGGCGAUGUACAUG [Ex NG2 #73] (Eterna round: R96, puzzle: Exclusion NG 2)”, the “apparent KD of MS2 coat protein” value (input ligand: FMN 200 uM) was determined as 0.0837 µM, the “apparent KD of MS2 coat protein” value under setting [4] came to 0.0424 µM and the “apparent KD of MS2 coat protein” value (input ligand: none) is 0.0546 µM.
Turning to “AGCUGUGGCCGAGGAUAUCACGAACCAUGGAAAACCAUGGAAAUUCUACAUGAGGAUCACCCAUGUGAGAAGGCGGUCUCAGCA [Eli eng2 - 023] (Eterna round: R96, puzzle: Exclusion NG 2)”, the “apparent KD of MS2 coat protein” value under setting [4] stood at 0.0125 µM.
Consider “GUAAACGAUGAGGAUAUAUGAUAUCAAAGCAUCAUAGAAGGCAUCACAUGAGGAUCACCCAUGUGAUCUUCUUG [Mat - Exclusion 6 - JL Mod - D30] (Eterna round: R97, puzzle: Exclusion 6)”, for which the “apparent KD of MS2 coat protein” value is 0.135 µM (input ligand: FMN 200 uM) and 0.0313 µM (input ligand: none).
In the case of “AGUACUAUCACGAAAGUGAUAGUACAAAAUAGCAAGUGAACAUGAGGAUCACCCAUGUCCUCAUUUGCUCGUCUUAU [Sensor 3 - 19] (puzzle: Sensor v3, turn-off variant 2)”, the “apparent KD of MS2 coat protein” value runs as follows: under setting [2], 0.0151 µM; under setting [1], 0.426 µM; under setting [3], 0.0142 µM.
As to “AAUUCACAAGCGAGAUCCCACAUGAGGAUCACCCAUGUGCUCGUCUUAUAAGGUACUGUGACGAGAGUCACGGUACC [Mat - Sensor, turn-off var - Eli Mod - D88] (Eterna round: R97, puzzle: Sensor, turn-off variant 1)”, the “apparent KD of MS2 coat protein” value was 0.0157 µM (input ligand: FMN 200 uM) and 0.016 µM (input ligand: none).
Taken in the same sequence, the figures for “GGAUCUACUGAGGAUAUUACAUCACCCGACUGAUAAGAAGGCAGAACAUGAGGAUCACCCAUGUGGGUAGCCAA [Polaris4] (Eterna round: R97, puzzle: Exclusion 6)” were 0.0257 µM and 0.0213 µM.
As for “GUCAGCUCGUGAGGAUAUACAUGAGGAUCACCCAUGUGGUCAAUAGCAGCUUCGGCUGCAAUAAUGUAGAAGGCACGAGCUGAC [ENG2/8-D] (Eterna round: R96, puzzle: Exclusion NG 2)”, the “apparent KD of MS2 coat protein” value runs as follows: (input ligand: FMN 200 uM) 0.0574 µM; under setting [4], 1.03 µM; (input ligand: none) 0.208 µM.
As to “AAAGAAGAGAGAAAAUAACACAUGAGGAUCACCCAUGUGAGAAGAUGAGGGUGAUACAGGCUAUAUGCUCGUCUUAU (puzzle: Sensor v3, turn-off variant 1)”, the “apparent KD of MS2 coat protein” value reads like this: under setting [2], 0.0629 µM; under setting [1], 0.35 µM; under setting [3], 0.104 µM.
With “UGCAUGUAAGGAUAUGCAUCCGCCAACGAACCGGCGGCACAGCAGAAGGUACAUGAGGAUCACCCAUGUGUCCC [Isonrian] (Eterna round: R96, puzzle: Exclusion 4)”, the “apparent KD of MS2 coat protein” value (input ligand: FMN 200 uM) came to 0.357 µM, the “apparent KD of MS2 coat protein” value under setting [4] stood at 0.025 µM and the “apparent KD of MS2 coat protein” value (input ligand: none) was 0.0298 µM.
On to “GCUCAGAUGACAGGAUAUCACGCCUGGCAGAUGGGCGACAUGAGGAUCACCCAUGUCCAGCACGAUGAGAAGGGUUAUCGGGCG [Ririorti] (Eterna round: R96, puzzle: Exclusion NG 2)”, for which the “apparent KD of MS2 coat protein” value by setting is: (input ligand: FMN 200 uM) 0.195 µM; under setting [4], 0.0942 µM; (input ligand: none) 0.0964 µM.
On to “UCAUGUUUAGAGGAUAUGAUUACUCUAGAGUGAUCAGAAGGCUAGACAUGAGGAUCACCCAUGUCAGAACAUGU [Exclusion 6 - B - 17:a] (puzzle: Exclusion 6)”, for which the “apparent KD of MS2 coat protein” value under setting [1] worked out at 0.0245 µM.
Take “UGUAUUAUAGGAUAUCACAACCUGGACAUGAGGAUCACCCAUGUGGUUGCAUGCUGUCGAUGAGAAGGAUAGGGCG [Eternabot (L1) Solution 43] (Eterna round: R97, puzzle: Exclusion 5)”: the “apparent KD of MS2 coat protein” value runs as follows: (input ligand: FMN 200 uM) 0.0228 µM; (input ligand: none) 0.0219 µM.
Turning to “GAUUUACAUGAGGAUCACCCAUGUGAGGAUAUAUUGUUAUUUUUAAUAUUUUUUAGUGGUAGAAGGCGCGUGAU [JR_Exc1_Sub016] (Eterna round: R97, puzzle: Exclusion 1)”, the “apparent KD of MS2 coat protein” value runs as follows: (input ligand: FMN 200 uM) 0.0242 µM; (input ligand: none) 0.0269 µM.
As for “GAAAAGGUAGGAUAUACGAAAAAAAAGGGUAGAAAAAAAACACAUGAGGAUCACCCAUGUAGAAGGGCCAAAAG [salish99_ex2_r3_032] (puzzle: Exclusion 2)”, the “apparent KD of MS2 coat protein” value runs as follows: under setting [2], 0.0402 µM; under setting [1], 0.034 µM; under setting [3], 0.0453 µM.
As for “CGUCAACAUGAGGAUCACCCAUGUUAGGAUAUGGCGGUCCAUGGUUGGGACUAGACCGCCAGAAGGAGCAUGCG [Eternabot (L1) Solution 54] (Eterna round: R97, puzzle: Exclusion 1)”, the “apparent KD of MS2 coat protein” value is, setting by setting: (input ligand: FMN 200 uM) 0.0719 µM; (input ligand: none) 0.0868 µM.
Consider “AGUACUAACACGUCAGUGUUAGUACAAUAAGCUUGUGAAACAUGAGGAUCACCCAUGUCCUCAUAAGCUCGUCUUAU [salish99_TOv2_r3_062] (puzzle: Sensor v3, turn-off variant 2)”, for which the “apparent KD of MS2 coat protein” value by setting is: under setting [2], 0.0173 µM; under setting [1], 0.602 µM; under setting [3], 0.0161 µM.
For the sequence “CAGCUGAAUGUGAGGAUAUGUCGAGCGAUAGCUCGAUAGAAGGCACAUGAGGAUCACCCAUGUCUCAACAGCUG [BmEx4/2-C4] (Eterna round: R97, puzzle: Brourd's mod of Exclusion 4)”, the “apparent KD of MS2 coat protein” value was 0.349 µM (input ligand: FMN 200 uM) and 0.0283 µM (input ligand: none).
“CCAGCGUAUGUGAGGAUAUGCUGGUCCUUGGAUCAGCAGAAGGCACAUGAGGAUCACCCAUGUGAGAGCGUUGG [JL bmx4 3.37] (puzzle: Brourd's mod of Exclusion 4)”: under setting [1], the “apparent KD of MS2 coat protein” value worked out at 0.0214 µM.
For the sequence “GCCGAUUAAGUGAGGAUAUACCUAUGGAUACAUAGGUAGAAGGUACAUGAGGAUCACCCAUGUUCCUCAACGGC [Fiskers BMX 4 - 9] (puzzle: Brourd's mod of Exclusion 4)”, under setting [1], the “apparent KD of MS2 coat protein” value is 0.00893 µM.
Regarding “UCAACCAGAGGAUAUGCGCAUAGAUCAGACUUUGUUUCUUAACAUGAGGAUCACCCAUGUAGAAGGCUGUAACC [Ex2 #77] (Eterna round: R97, puzzle: Exclusion 2)”, the “apparent KD of MS2 coat protein” value reads like this: (input ligand: FMN 200 uM) 0.0203 µM; (input ligand: none) 0.0198 µM.
With “UGUUGUUACGCAGGAUAUGAGGAUCACCCAUAUAAGGAUAUCGAAAGAGAAGGUCUGAGGAUUACCCAGAAGGGCGGGUUAACA [pwkr exNG2 2xF5 2xFMN.29] (Eterna round: R96, puzzle: Exclusion NG 2)”, the “apparent KD of MS2 coat protein” value by setting is: (input ligand: FMN 200 uM) 0.227 µM; under setting [4], 0.0653 µM; (input ligand: none) 0.115 µM.
